Data from patent US20140342918.

Tested on: Vesicular stomatitis virus (whole virion) (Vesicular stomatitis virus)

CTCCTCTGACTGTAACCACGTACCACCCGTGACCCTCACATCCCTCCTCTGACGTAACCACGCGGGCTTCTGGACTACCTATGC [SwAp8]
binding signal (ohm (RCTV-RCTB)): 1680

CTCCTCTGACTGTAACCACGGCACCCCGAGGCAATTTCGCGCATAGTTCATCCTGTTTGGGGCTTCTGGACTACCTATGC [SwAp15]
binding signal (ohm (RCTV-RCTB)): 930

CTCCTCTGACTGTAACCACGTACCACCCGTGACCCTTACATCCCTCCTCTGTTCTCCGCGGGCTTCTGGACTACCTATGC [SwAp12]
binding signal (ohm (RCTV-RCTB)): 2180

CTCCTCTGACTGTAACCACGTACCACCCTTGACCCTCACATCCCTCCTCTGTTCTCCGCGGGCTTCTGGACTACCTATGC [SwAp14]
binding signal (ohm (RCTV-RCTB)): 709

CTCCTCTGACTGTAACCACGTACCACCCGTGGCCCTCACATCCCTCCTCTGTTCTCCGCGGGCTTCTGGACTACCTATGC [SwAp7]
binding signal (ohm (RCTV-RCTB)): 1770

CTCCTCTGACTGTAACCACGTACCACCCGTGACGCGCACATCCCTCCTCTGTTCTCCGCGGGCTTCTGGACTACCTATGC [SwAp2]
binding signal (ohm (RCTV-RCTB)): 1420

CTCCTCTGACTGTAACCACGTGGCACTGTTGTCATCACTGTCCCCCCCTAACTCGTCCGTGGCTTCTGGACTACCTATGC [SwAp6]
binding signal (ohm (RCTV-RCTB)): 1290

CTCCTCTGACTGTAACCACGTGCCCCCTCCATCCCGAGTAACCTACGTCCATGTCTCGCTGGCTTCTGGACTACCTATGC [SwAp4]
binding signal (ohm (RCTV-RCTB)): 955

CTCCTCTGACTGTAACCACGNNNNNNNNNNNNNNNNNNNNNNNNNNNNNNNNNNNNNNNGGCTTCTGGACTACCTATGC [Pool 10]
binding signal (ohm (RCTV-RCTB)): 182

CTCCTCTGACTGTAACCACGTACCGCCCGTGACCCTCACATCCCTCCTCTGTTCTCCGCGGGCTTCTGGACTACCTATGC [SwAp10]
binding signal (ohm (RCTV-RCTB)): 3720

CTCCTCTGACTGTAACCACGTACCACCCGTGACCCTCACATCCCTCCTCTGTTCTCCGCGGGCTTCTGGACTACCTATGC [SwAp13]
binding signal (ohm (RCTV-RCTB)): 1980

CTCCTCTGACTGTAACCACGTACCACCCGTGACCCTCACATCCCTCCTCTGTTCTCCGCGGGCTTCTGGACTACCTATGC [SwAp5]
binding signal (ohm (RCTV-RCTB)): 838

CTCCTCTGACTGTAACCACGTACCACCCGTGGCCCTCACATCCCTCCTCTGTTCTCCGCGGGCTTCTGGACTACCTATGC [SwAp9]
binding signal (ohm (RCTV-RCTB)): 1180

TCCTCTGACTGTAACCACGCAGCCACCATACTGTCCCGTTTGCCCCCGCCGATTCCGTCGGCTTCTGGACTACCTATGC [SwAp11]
binding signal (ohm (RCTV-RCTB)): 373

CTCCTCTGACTGTAACCACGCGCCCTCAGAACTTTTGTATCCGAACACCTGCATCGTCCGGGCTTCTGGACTACCTATGC [SwAp1]
binding signal (ohm (RCTV-RCTB)): 1040

CTCCTCTGACTGTAACCACGTGCCCCCTCCATCCCGAGTAACCTACGTCCATGTCTCGCTGGCTTCTGGACTACCTATGC [SwAp3]
binding signal (ohm (RCTV-RCTB)): 803
